For one test, the target named is TNFR1-Fc (UniProt P25118). The experiment in a line: BLI. (In BLI a coated tip is dipped into the sample, and binding shifts an interference pattern.)
For the next test, the target named is TNFR2-Fc (UniProt P25119). As to the kind of experiment: BLI.
Sequence of UniProt P25119 (P25119 23-258): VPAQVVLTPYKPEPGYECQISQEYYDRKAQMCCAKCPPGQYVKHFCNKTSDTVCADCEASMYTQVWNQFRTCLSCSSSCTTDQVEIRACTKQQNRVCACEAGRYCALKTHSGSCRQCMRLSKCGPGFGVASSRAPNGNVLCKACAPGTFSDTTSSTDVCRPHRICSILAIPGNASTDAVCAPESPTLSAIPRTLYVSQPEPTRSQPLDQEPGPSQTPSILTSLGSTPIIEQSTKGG

Sequence of UniProt P25118 (P25118 30-212): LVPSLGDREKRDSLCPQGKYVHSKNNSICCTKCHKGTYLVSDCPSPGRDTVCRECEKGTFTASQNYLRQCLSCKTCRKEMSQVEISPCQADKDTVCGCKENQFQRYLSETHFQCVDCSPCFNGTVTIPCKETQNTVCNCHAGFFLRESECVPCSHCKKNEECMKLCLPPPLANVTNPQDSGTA

With “mutated murine TNFα with valine at the start (TNFα-V) (ligand)”, the Kd was found to be 0.326 nM with TNFR1-Fc and 1.86 nM with TNFR2-Fc.

Regarding “native murine TNFα with leucine at the start (TNFα-L) (ligand)”, the Kd with TNFR1-Fc worked out at 0.309 nM; in the test with TNFR2-Fc it was 2.1 nM.

As to “native NGR-TNFα with leucine at the start of TNFα (NGR-TNFα-L)”, the Kd in the test with TNFR1-Fc came to 0.741 nM; with TNFR2-Fc it was 4.63 nM.

Turning to “mutated NGR-TNFα with valine at the start of TNFα (NGR-TNFα-V)”, the figures for the Kd in the test with TNFR1-Fc and with TNFR2-Fc were 0.526 nM and 2.45 nM, respectively.

As a reminder, the Kd is the equilibrium constant for the complex coming apart.

Values taken from publication PMC7852052.
